{
  "source": "paper doi:10.1101/2022.03.14.484276",
  "target": "BsaXI S subunit (specificity subunit), WT TRD1-CR1-TRD2-CR2 (Bacillus stearothermophilus 25B (Geobacillus sp. 25B))",
  "test": "co-purification through chromatography columns",
  "data": [
    {"substance": "BsaXI RM subunit (restriction-modification fusion subunit) (enzyme)", "values": [
      {"measurement": "stoichiometry N", "value": 2, "unit": "RM per S"}
    ]}
  ]
}
